Results published in US20030044858A1 (Genentech, published 2003).

B1: MaE 13 murine anti-human IgE monoclonal antibody (antibody)
heavy: DVQLQESGPGLVKPSQSLSLTCTVTGYTITSDNAWNWIRQFPGNKLEWMGYINHSGTTSYNPSLKSRISITRDTSKNQFFLQLNSVTTEDTATYYCAWVVAYAMDYWGQGTSVTVSSAKTTPPSVYPLAR
light: DIVMTQSQKFMSTSVGDRVSVTCKASQNVSSNVAWYQQKPGQSPKALIYSASYRYSGVPDRFTGSGSGTDFTLTISNVQSEDLAEYFCQQYYTYPLYTFGGGTKLEIKRADAAPTVSIFPPSTR
notes: murine IgG1; may hold only the variable regions
B2: MaE 11 murine anti-human IgE monoclonal antibody (antibody)
heavy: DVQLQESGPGLVKPSQSLSLACSVTGYSITSGYSWNWIRQFPGNKLEWMGSITYDGSSNYNPSLKNRISVTRDTSQNQFFLKLNSATAEDTATYYCARGSHYFGHWHFAVWGAGTTVTVSSAKTTPPSVYPLAR
light: DIVLTQSPASLAVSLGQRATISCKASQSVDYDGDSYMNWYQQKPGQPPILLIYAASYLGSEIPARFSGSGSGTDFTLNIHPVEEEDAATFYCQQSHEDPYTFGAGTKLEIK
notes: murine IgG1; they may hold only the variable regions

How the values were obtained:
[1] = molecular target: FCEH-bound IgE (human IgE held on FcεRI) (human, UniProt P01854 1-546; P12319 26-257); experiment: cell-based or functional assay
FCEH-bound IgE (human IgE held on FcεRI), sequence (P01854 whole entry, chain 1 of 2): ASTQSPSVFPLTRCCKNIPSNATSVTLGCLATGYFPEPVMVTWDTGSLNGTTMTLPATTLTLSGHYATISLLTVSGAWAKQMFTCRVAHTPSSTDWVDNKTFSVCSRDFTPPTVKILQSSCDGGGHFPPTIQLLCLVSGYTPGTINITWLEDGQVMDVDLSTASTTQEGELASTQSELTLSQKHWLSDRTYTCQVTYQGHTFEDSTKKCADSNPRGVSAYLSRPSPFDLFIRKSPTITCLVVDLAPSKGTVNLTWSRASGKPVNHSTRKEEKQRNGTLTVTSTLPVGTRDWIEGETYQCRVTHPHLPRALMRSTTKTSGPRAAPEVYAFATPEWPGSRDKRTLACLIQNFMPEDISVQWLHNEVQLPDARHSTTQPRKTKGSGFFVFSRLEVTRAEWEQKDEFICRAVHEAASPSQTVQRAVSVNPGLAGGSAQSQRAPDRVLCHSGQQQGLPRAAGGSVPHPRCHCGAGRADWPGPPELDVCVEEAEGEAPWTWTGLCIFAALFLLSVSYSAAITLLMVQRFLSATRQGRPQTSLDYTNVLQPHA
FCEH-bound IgE (human IgE held on FcεRI), sequence (P12319 26-257, chain 2 of 2): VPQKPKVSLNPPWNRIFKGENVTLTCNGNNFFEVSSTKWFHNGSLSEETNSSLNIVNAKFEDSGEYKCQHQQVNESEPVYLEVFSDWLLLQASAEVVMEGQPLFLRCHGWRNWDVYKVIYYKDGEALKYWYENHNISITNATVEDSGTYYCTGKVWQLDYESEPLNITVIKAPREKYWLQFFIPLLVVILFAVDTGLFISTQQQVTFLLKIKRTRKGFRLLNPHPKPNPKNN

[2] = molecular target: T1, membrane IgE on U266 B1 cells (human, UniProt P01854 1-546); experiment: FACS on U266 B1 cells (membrane IgE+)
T1 construct: whole, on cells; also called Membrane IgE on U266BL; mIgE
T1 sequence (P01854 whole entry): as the sequence (P01854 whole entry, chain 1 of 2) above
Method: c. […] Cells are added to 400 μl FACS buffer containing propidium iodide at 2 μg/ml to stain dead cells.

human IgE (U266 IgE) [3] = molecular target: T2, human IgE (U266 IgE) (human, UniProt P01854 1-546); experiment: 50% inhibition of IgE binding to FCEH (assay taken as that of Table 9)
T2 construct: mature; Purified from U266B1 cells or recombinant from 293 cells; the Scatchard assay used iodinated IgE of ND and PS allotypes; P01854 covers the constant region only; also called huIgE; U266 IgE standard
T2 sequence (P01854 whole entry): as the sequence (P01854 whole entry, chain 1 of 2) above
Method: (§1) A 96-well assay plate (Manufn Nunc.) was coated with 0.05 ml of the FcεRI alpha chain IgG1 chimeric receptor in 1 μg/ml coating buffer ([…] carbonate/bicarbonate, pH 9.6). Assay was done for 12 hours at 4-8° C. The wells were aspirated and 250 μl blocking buffer (PBS—1% BSA pH 7.2) was added and incubated for one hour at 4° C. […] The FcεRI-coated wells were washed three times with PBS-0.05% Tween20, and then 50 μl from the sample wells were transferred and incubated with agitation for 30 minutes at 25° C. 50 μl/well of streptavidin-HRP diluted 1:5000 in assay buffer was incubated for 15 minutes with agitation and then the plate was washed as before. 50 μl/well of Microwell peroxidase substrate (Kirkgaard & Parry Laboratories) was added and color was developed for 30 minutes. The reaction was stopped by adding an equal volume of 1 normal HCl and the adsorbance measured at 450 nm.

human IgE (U266 IgE) [4] = molecular target: T2, human IgE (U266 IgE); experiment: ratio of 50% inhibition concentrations
Method: as §1

Row | Binder | PBL Histamine Release (EC50) [1] | EC50 [2] | IC50 (human IgE (U266 IgE) [3]) | Var. X / IgL1H1 (human IgE (U266 IgE) [4]) | Var. X / MaE11 (human IgE (U266 IgE) [4])
1 | B1 | > 10 µg/mL | 1 µg/mL |  |  | 
2 | B2 | > 100 µg/mL | 0.15 µg/mL | 0.449 µg/mL | 0.06 ratio | 1 ratio
